Test results published in patent publication US20130177979A1 (UNIVERSITY OF CENTRAL FLORIDA RESEARCH FOUNDATION, published 2013).
Where no end group is shown, it is not given here. [ ]: non-standard residue; d: D form. pY = N[C@@H](Cc1ccc(OP(=O)(O)O)cc1)C(=O)O

T1: PEpYINQS (pY1068 peptide of EGFR)
T1 construct: SPR analyte; also called pY1068EGFR
T1 peptide: PE[pY]INQS

T2: GpYVKPQ (pTyr peptide of Stat5)
T2 construct: SPR analyte; also called pY694Stat5; pY695Stat5
T2 peptide: G[pY]VKPQ

T3: PpYLKTK (Stat3-derived pTyr705 peptide)
T3 construct: SPR analyte; also called pY705Stat3; Stat3 pY705 peptide
T3 peptide: P[pY]LKTK

T4: GpYIKTE (Stat1 pY701 peptide)
T4 construct: SPR analyte; also called pY701Stat1; Stat1 phosphopeptide
T4 peptide: G[pY]IKTE

B1: His-tagged Stat3 (full-length Stat3) (other)
chain: MAQWNQLQQLDTRYLKQLHQLYSDTFPMELRQFLAPWIESQDWAYAASKESHATLVFHNLLGEIDQQYSRFLQESNVLYQHNLRRIKQFLQSRYLEKPMEIARIVARCLWEESRLLQTAATAAQQGGQANHPTAAVVTEKQQMLEQHLQDVRKRVQDLEQKMKVVENLQDDFDFNYKTLKSQGDMQDLNGNNQSVTRQKMQQLEQMLTALDQMRRSIVSELAGLLSAMEYVQKTLTDEELADWKRRQQIACIGGPPNICLDRLENWITSLAESQLQTRQQIKKLEELQQKVSYKGDPIVQHRPMLEERIVELFRNLMKSAFVVERQPCMPMHPDRPLVIKTGVQFTTKVRLLVKFPELNYQLKIKVCIDKDSGDVAALRGSRKFNILGTNTKVMNMEESNNGSLSAEFKHLTLREQRCGNGGRANCDASLIVTEELHLITFETEVYHQGLKIDLETHSLPVVVISNICQMPNAWASILWYNMLTNNPKNVNFFTKPPIGTWDQVAEVLSWQFSSTTKRGLSIEQLTTLAEKLLGPGVNYSGCQITWAKFCKENMAGKGFSFWVWLDNIIDLVKKYILALWNEGYIMGFISKERERAILSTKPPGTFLLRFSESSKEGGVTFTWVEKDISGKTQIQSVEPYTKQQLNNMSFAEIIMGYKIMDATNILVSPLVYLYPDIPKEEAFGKYCRPESQEHPEADPGSAAPYLKTKFICVTPTTCSNTIDLPMSPRTLDSLMQFGNNGEGAEPSAGGQFESLTFDMDLTSECATSPM
B2: 5-carboxyfluorescein-labeled SPI (peptide)
peptide: FISKERERAILSTKPPGTFLLRFSESSK
modifications: 5-carboxyfluorescein attached to the amino-terminus
notes: Used for cell uptake and colocalisation microscopy; also called fluorescently-labeled SPI

Tests used:
[1] = molecular target: T1, PEpYINQS (pY1068 peptide of EGFR); assay: SPR (SensiQ), His-tagged protein immobilised on HisCap chip, pTyr peptide as analyte
[2] = molecular target: T2, GpYVKPQ (pTyr peptide of Stat5); assay: as above
[3] = molecular target: T3, PpYLKTK (Stat3-derived pTyr705 peptide); assay: as above
[4] = molecular target: T4, GpYIKTE (Stat1 pY701 peptide); assay: as above
[5] = molecular target: T2, GpYVKPQ (pTyr peptide of Stat5); assay: SPR (SensiQ); His-tagged full-length Stat3 immobilised on a HisCap sensor chip, GpYVKPQ passed over as analyte; sensorgram shown at 100 µM
[6] = molecular target: T5, human epidermal growth factor receptor (EGFR) on cells (human, UniProt P00533 25-1210); assay: Fluorescence and confocal microscopy, fluorescently-labeled SPI and anti-EGFR immunostaining in MDA-MB-231 and NIH3T3/hEGFR cells
T5 construct: whole, on cells; SPI is said to associate with the pTyr motifs of the receptor's cytoplasmic tail inside cells; also called hEGFR; EGF receptor
From the text: Fluorescence imaging and immunofluorescence with laser-scanning confocal microscopy.

Binder	Kd [1] [µM]	Kd [2] [µM]	Kd [3] [µM]	Kd [4] [µM]	Kd [5] [µM]	binding result [6]
B1	0.6	1200	0.9	4.4	1140	
B2						binds
